Numbered stars: 1 amine (or outer) side, 2 acyl side, 3 side chain; on linkers, the order of the positions; unused ones are H or OH. Bridge positions count the residues as written; N and C are the ends. Square brackets hold non-standard residues; d marks the D form. Peptide text beside a SMILES is read from it. I, II: the chains in the order shown. * marks the point of attachment. Hexanoyl(6-succinimido-3yl) = O=C1CC([*:1])C(=O)N1CCCCCC(=O)[*:2]; Pteroyl = Nc1nc2ncc(CNc3ccc(C(=O)*)cc3)nc2c(=O)[nH]1; Dolaproine = CO[C@@H]([C@@H]1CCCN1)[C@@H](C)C(=O)O; Dil = CC[C@H](C)[C@H](NC)[C@@H](CC(=O)O)OC; γGlu = O=C(O)[C@H](CCC(=O)[*:2])N[*:1]; PABC = O=C(OCc1ccc(N[*:1])cc1)[*:2]; X1 = C[C@@H](N*)[C@@H](O)c1ccccc1; Cit = NC(=O)NCCC[C@H](N)C(=O)O; NMeV = CN[C@H](C(=O)O)C(C)C
Assays:
[1] = system: breast cancer cell line HCC1954; assay: Cytotoxicity test of conjugate LDC10B; assay type: cell-based, human; settings: HCC1954, Incubation Time 30 min
Description: (§1) Culture medium: RPMI 1640 Medium, no folic acid
(§2) 1) human nasopharyngeal cancer cell line KB, melanoma cell line A375, human lung cancer cell H1299, chronic myeloid leukemia cell line K562, human lung cancer cell H460, ovarian cancer cell SKOV3, breast cancer cell line HCC1954, human gastric cancer cell N87, and human breast cancer cell SK-BR-3 were incubated at 37° C., 5% CO2 in RPMI 1640 medium containing 10% fetal bovine serum, the cells were passaged every 2-3 days.
(§3) 2) human nasopharyngeal cancer cell line KB, melanoma cell line A375, human lung cancer cell H1299, chronic myeloid leukemia cell line K562, human lung cancer cell H460, ovarian cancer cell SKOV3, breast cancer cell line HCC1954, human gastric cancer cell N87, and human breast cancer cell SK-BR-3 were plated at 1×10^3 cells per well (96-well plate) and incubated for 8-12 h at 37° C., 5% CO2.
(§4) 3) Stock solutions of LDC conjugates or controls were prepared in PBS solution. 100 μL/well of serially diluted LDC conjugates or controls was added to the test cells in the plates and incubated for 15-30 min at 37° C., 5% CO2. The culture medium in the wells was then removed by aspiration and the test cells were incubated in fresh culture medium without conjugates (150 μL/well) for 2-3 days at 37° C., 5% CO2.
(§5) 4) CellTiter 96® Aqueous One Solution Cell Proliferation Assay (Promega) was added to each well to measure the amount of […] cells, and each plate was incubated in an incubator for 1 h at 37° C., 5% CO2.
(§6) 5) Each plate was read at 490 nm on a microplate reader, and the cell survivals were compared for test cells with or without the treatment of LDC conjugates. The LDC drug concentrations that are required for 50% cell death (IC50 values) were determined.

[2] = system: ovarian cancer cell SKOV3; assay: Cytotoxicity test of conjugate LDC10B; assay type: cell-based, human; settings: SKOV3, Incubation Time 30 min
Description: as §1, §2, §3, §4, §5, §6

[3] = system: Transplanted HCC1954 tumor; assay: Inhibitory assay of conjugates LDC10B and LDC10H against xenograf tumors; assay type: in vivo, nude mice; settings: 10 mg/kg
Description: (§7) Animal: nude mice, aged 6-8 weeks, female
(§8) 1) human large cell lung cancer cell H460, human lung cancer cell A549, ovarian cancer cell SKOV3, and breast cancer cell line HCC1954 were incubated at 37° C., 5% CO2 in IMDM medium containing 10% fetal bovine serum, the cells were passaged every 2-3 days.
(§9) 2) generation of tumors: 7×10^6 tumor cells were injected subcutaneously into the back of nude mice, and the mice were grouped for treatment after the tumor sizes were as large as about 100-200 mm^3.
(§10) 3) treatment: 3 mice/group, treated with LDC10B, LDC10H, as well as controls MMAE and PBS with doses of 5 and 10 mg/kg every 5 days, three injections.
(§11) 4) the physical performance, body weights and tumor sizes of the animals were monitored. The number of animal death was recorded during the experiment.

Transplanted SKOV3 tumor = assay: as above; assay type: in vivo, nude mice; settings: 10 mg/kg
Description: as §7, §8, §9, §10, §11

Transplanted H460 tumor = assay: as above; assay type: in vivo, nude mice
Description: as §7, §8, §9, §10, §11

[4] = Detection of conjugate concentrations in xenograf tumor models (serum, anti-MMAE ELISA); assay type: in vivo, nude mice; settings: 10 mg/kg, peritoneal injection
Description: as §7
1) Human ovarian cancer cell SKOV3 and breast cancer cell line HCC1954 were incubated at 37° C., 5% CO2 in IMDM medium containing 10% fetal bovine serum, the cells were passaged every 2-3 days.
2) generation of tumors: 7×10^6 tumor cells were injected subcutaneously into the back of nude mice, and the mice were grouped for treatment after the tumor sizes were as large as about 100˜200 mm^3.
3) treatment: 3 mice/group, 10 mg/kg, peritoneal injection.
4) blood collection: the time for blood collection before treatment was set as 0, blood was collected at 20 min, 2 h, 4 h, and 24 h after treatment. The blood was centrifuged to collect serum, which was frozen and preserved.
5) Detection: the total amount of MMAE, LDC10B, LDC10H, as well as the MMAE metabolites of LDC10B and LDC10H in serum were detected by mice anti-MMAE ELISA kit.

[5] = system: human lung cancer cell H460; assay: Cytotoxicity test of conjugate LDC10BR; assay type: cell-based; settings: H460, incubated 15-30 min, then 2-3 days
Description: as §1
(§12) 1) human nasopharyngeal cancer cell line KB, melanoma cell line A375, and human lung cancer cell H460 were incubated at 37° C., 5% CO2 in RPMI 1640 medium containing 10% fetal bovine serum, the cells were passaged every 2-3 days.
(§13) 2) human nasopharyngeal cancer cell line KB, melanoma cell line A375, and human lung cancer cell H460 were plated at 1×10^3 cells per well (96-well plate) and incubated for 8-12 h at 37° C., 5% CO2.
as §4, with “control” for “controls”, “the” for “the test”, “plate” for “plates”
(§14) 4) CellTiter 96® Aqueous One Solution Cell Proliferation Assay (Promega) was added to each well to measure the amount of […] cells, and the plate was incubated in an incubator for 1 h at 37° C., 5% CO2.
(§15) 5) the plate was read at 490 nm on a microplate reader, and the cell survivals were compared for cells with or without the treatment of LDC conjugates. The LDC drug concentrations that are required for 50% cell death (IC50 values) were determined.

melanoma cell line A375 [6] = assay: Cytotoxicity test of conjugate LDC10BR; assay type: cell-based; settings: A375, incubated 15-30 min, then 2-3 days
Description: as §1, §12, §13
as §4, with “control” for “controls”, “the” for “the test”, “plate” for “plates”
as §14, §15

[7] = system: human nasopharyngeal cancer cell line KB; assay: Cytotoxicity test of conjugate LDC10BR; assay type: cell-based; settings: incubated 15-30 min, then 2-3 days
Description: as §1, §12, §13
as §4, with “control” for “controls”, “the” for “the test”, “plate” for “plates”
as §14, §15

[8] = system: human gastric cancer cell N87; assay: Cytotoxicity test of conjugate LDC10B; assay type: cell-based; settings: N87, Incubation Time 30 min
Description: as §1, §2, §3, §4, §5, §6

[9] = system: human breast cancer cell SK-BR-3; assay: Cytotoxicity test of conjugate LDC10B; assay type: cell-based; settings: SK-BR-3, Incubation Time 30 min
Description: as §1, §2, §3, §4, §5, §6

[10] = system: human lung cancer cell H460; assay: Cytotoxicity test of conjugate LDC10B; assay type: cell-based; settings: H460, Incubation Time 30 min
Description: as §1, §2, §3, §4, §5, §6

[11] = system: human lung cancer cell H1299; assay: Cytotoxicity test of conjugate LDC10B; assay type: cell-based; settings: H1299, Incubation Time 30 min
Description: as §1, §2, §3, §4, §5, §6

melanoma cell line A375 [12] = assay: Cytotoxicity test of conjugate LDC10B; assay type: cell-based; settings: A375, Incubation Time 15 min
Description: as §1, §2, §3, §4, §5, §6

[13] = system: chronic myeloid leukemia cell line K562; assay: Cytotoxicity test of conjugate LDC10B; assay type: cell-based; settings: K562, Incubation Time 30 min
Description: as §1, §2, §3, §4, §5, §6

[14] = system: human nasopharyngeal cancer cell line KB; assay: Cytotoxicity test of conjugate LDC10B; assay type: cell-based; settings: Incubation Time 15 min
Description: as §1, §2, §3, §4, §5, §6

CC[C@H](C)[C@@H]([C@@H](CC(=O)N1CCC[C@H]1[C@H](OC)[C@@H](C)C(=O)N[C@H](C)[C@@H](O)c1ccccc1)OC)N(C)C(=O)[C@@H](NC(=O)[C@H](C(C)C)N(C)C(=O)OCc1ccc(NC(=O)[C@H](CCCNC(N)=O)NC(=O)[C@@H](NC(=O)CCCCCN2C(=O)CC(SC[C@H](NC(=O)CC[C@H](NC(=O)c3ccc(NCc4cnc5[nH]c(N)nc(=O)c5n4)cc3)C(=O)O)C(=O)N[C@@H](CCCCN)C(=O)N[C@@H](CCC(=O)O)C(=O)N[C@@H](Cc3ccccc3)C(=O)N[C@@H](CC(C)C)C(=O)N[C@@H](Cc3c[nH]cn3)C(=O)N3CCC[C@H]3C(=O)N[C@@H](CO)C(=O)N[C@@H](CCCCN)C(=O)N[C@H](C(=O)N[C@@H](CC(=O)O)C(=O)N[C@@H](CC(C)C)C(=O)N3CCC[C@H]3C(=O)N[C@@H](CCCNC(=N)N)C(=O)O)C(C)C)C2=O)C(C)C)cc1)C(C)C (stereo partly shown) [LDC10B] (I: {Pteroyl-γGlu}-CKEFLHPSKVDLPR-OH / II: V[Cit][PABC][NMeV]V[Dil][Dolaproine]-X1; linker I:1-II:N via Hexanoyl(6-succinimido-3yl))
IC50 [1]: 14.1 nM | IC50 [2]: 15.7 nM | Body weight of mice ([3]; Before Injection): 21.85 g | Body weight of mice ([3]; Five days after Injection 1): 22.2 g | Body weight of mice ([3]; Five days after Injection 2): 22.55 g | Body weight of mice ([3]; Five days after Injection 3): 22.38 g | Body weight of mice (Transplanted SKOV3 tumor; Before Injection): 22.96 g | Body weight of mice (Transplanted SKOV3 tumor; Five days after Injection 1): 22.44 g | Body weight of mice (Transplanted SKOV3 tumor; Five days after Injection 2): 23.23 g | Body weight of mice (Transplanted SKOV3 tumor; Five days after Injection 3): 23.53 g | Body weight of mice (Transplanted H460 tumor; 5 mg/kg, Before Injection): 23.13 g | Body weight of mice (Transplanted H460 tumor; 5 mg/kg, Five days after Injection 1): 22.53 g | Body weight of mice (Transplanted H460 tumor; 5 mg/kg, Five days after Injection 2): 22.26 g | Body weight of mice (Transplanted H460 tumor; 5 mg/kg, Five days after Injection 3): 21.65 g | Body weight of mice (Transplanted H460 tumor; 10 mg/kg, Before Injection): 22.51 g | Body weight of mice (Transplanted H460 tumor; 10 mg/kg, Five days after Injection 1): 22.53 g | Body weight of mice (Transplanted H460 tumor; 10 mg/kg, Five days after Injection 2): 23.37 g | Body weight of mice (Transplanted H460 tumor; 10 mg/kg, Five days after Injection 3): 23 g | Concentration in serum ([4]; 20 min): 10800 ng/mL | Concentration in serum ([4]; 2 h): 5035 ng/mL | Concentration in serum ([4]; 4 h): 530 ng/mL | Concentration in serum ([4]; 24 h): 117.9 ng/mL | detected in serum at 24 h after treatment (in words) ([4]; 24 h): Trace amount | Concentration in serum ([4]; Before Treatment): 0 ng/mL | IC50 [5]: 6800 nM | IC50 (melanoma cell line A375 [6]): 51300 nM | IC50 [7]: 2200 nM | IC50 [8]: 75.1 nM | IC50 [9]: 15.9 nM | IC50 [10]: 50.4 nM | IC50 [11]: 58.8 nM | IC50 (melanoma cell line A375 [12]): 10000 nM | IC50 [13]: 14.8 nM | IC50 [14]: 760 nM

Source: US11571480B2, “Multi-ligand drug conjugates and uses thereof” (priority 2015, dated 2023)
